# Measured values taken from US12331073B2, “Preparation of biologically active complexes” (priority 2017, dated 2025).
# Columns and labels:
# [1] = system: tumour cells; assay: Inherent tumoricidal effect of oleate salts
# [2] = system: cells; conditions: Vukojevic et al. Langmuir 2010; cited from earlier work
# [3] = system: Human lung carcinoma cells (A549, ATCC); assay: Cell death assay (ATPlite, PrestoBlue, trypan blue exclusion); format: cell-based
# Protocol: Human lung carcinoma cells (A549, ATCC) were cultured in RPMI-1640 with non-essential amino acids (1:100), 1 mM sodium pyruvate, 50 μg/ml Gentamicin and 5-10% fetal calf serum (FCS) at 37° C., 5% CO2. For cell death experiment, cells were grown on 96-well plate (2×10^4/well, Tecan Group Ltd) overnight. Cells were incubated with biologically active complexes obtained in Example 1 at dosages equivalent to either 7, 21 or 35 μM peptide in serum-free RPMI-1640 at 37° C. FCS was added after 1 hour. Cell death was quantified 3 hours after peptide-oleate treatment by three biochemical methods including 1) estimation of cellular ATP levels using luminescence based ATPlite™ kit (Perkin Elmer) 2) Presto Blue fluorescence staining (Invitrogen, A13262) and 3) trypan blue exclusion assay. Fluorescence and luminescence were measured using a microplate reader (Infinite F200, Tecan).
# [4] = system: bladder cancer; conditions: murine bladder cancer model; cited from earlier work
# [5] = system: tumor cells; conditions: early in vitro experiments; cited from earlier work
# [6] = system: bladder cancer; conditions: local instillations; cited from earlier work
# [7] = system: skin papillomas; conditions: topical administration, placebo controlled clinical study; cited from earlier work
# [8] = system: glioblastoma xenograft; conditions: rat glioblastoma xenograft model; cited from earlier work
molecule,measurement,setting,value
CCCCCCCC/C=C\CCCCCCCC(=O)[O-].[Na+] [sodium oleate],inherent tumoricidal effect,[1],appear to have some inherent tumoricidal effect
"complexes using equine lysozyme and oleic acid: complexes using equine lysozyme and oleic acid (Vukojevic et al.) (protein, UniProt P11376 1-129, looked up, complex with oleic acid) Lysozyme C, milk isozyme: KVFSKCELAHKLKAQEMDGFGGYSLANWVCMAEYESNFNTRAFNGKNANGSSDYGLFQLNNKWWCKDNKRSSSNACNIMCSKLLDENIDDDISCAKRVVRDPKGMSAWKAWVKHCKDKDLSEYLASCNL",cell death,[2],found to produce cell death
"BAMLET: bovine alpha-lactalbumin (700 μM) and sodium oleate (3.5 mM) dissolved in Phosphate Buffered Saline by vortexing (protein, UniProt P00711 20-142, looked up, complex with sodium oleate, bovine alpha-lactalbumin (700 μM) and sodium oleate (3.5 mM) dissolved in Phosphate Buffered Saline by vortexing) Alpha-lactalbumin: EQLTKCEVFRELKDLKGYGGVSLPEWVCTTFHTSGYDTQAIVQNNDSTEYGLFQINNKIWCKDDQNPHSSNICNISCDKFLDDDLTDDIMCVKKILDKVGINYWLAHKALCSEKLDQWLCEKL",activity after lyophilisation of the complex,[3]; after lyophilisation,removed the activity
same,tumour cell death activity of freshly prepared solution,"[3]; solution in PBS vortexed at room temperature, FIG. 4",biologically active and killed A549 lung carcinoma cells in a dose dependent manner
"HAMLET (protein, UniProt P00709 20-142, looked up, complex with oleic acid) Alpha-lactalbumin: KQFTKCELSQLLKDIDGYGGIALPELICTMFHTSGYDTQAIVENNESTEYGLFQISNKLWCKSSQVPQSRNICDISCDKFLDDDITDDIMCAKKILDIKGIDYWLAHKALCTEKLEQWLCEKL",therapeutic efficacy in bladder cancer,[4],Therapeutic efficacy
same,anti-tumor activity in vitro,[5],broad anti-tumor activity with a high degree of tumor selectivity
same,tumor cell death in bladder cancer patients,[6],caused rapid death of tumor cells but not of healthy tissue surrounding the tumor
same,effect on skin papillomas,[7],removed or reduced the size of skin papillomas
same,cell death in healthy brain tissue,[8],without evidence of cell death in healthy brain tissue
same,tumor progression and survival,[8],delayed tumor progression and led to increased survival
